# Experimental data published in the supplement of paper PMC12042874.
# ± gives the uncertainty stated by the source.
# Assay: amyloid nucleation score (Sup35N fusion, yeast selection) (log enrichment); library NNK3; higher = more nucleation; inactive = no reads after selection
# How it was run: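 Using DiMSum, nucleation scores were taken as the log enrichment of output over input reads, centred on the mode score of non-aggregating sequences. The input and output reads came from Illumina sequencing of plasmid inserts, with sequences under 100 input reads excluded. The yeast were psi-negative, expressed Sup35N fused to peptides of 20 random codons, were induced with 100 μM copper sulfate for 24 hours, and were grown 7 days at 30°C on medium lacking adenine and uracil.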
row,Substance,amyloid nucleation score
1,NWFPGTRGRLLQVTLGYLVD,inactive
2,NWMGTGGYDMDDFFE,inactive
3,NWQYLNG,inactive
4,NWRLCFNRGRCRYMIMLQKF,inactive
5,NWSSH,inactive
6,NYDERCV,-0.363 ± 0.98
7,NYDRYCANIMYTAMCIRLLW,inactive
8,NYFQFCCGLETVNNYYRKCE,1.76 ± 0.066
9,NYGLLQFISIWSNILVHSNV,inactive
10,NYVLRTSVVL,inactive
11,NYWYITKERGSNLVWSNGDE,inactive
12,NYYNLYCLTVLQKRLQAGMQ,inactive
13,NYYNQT,inactive
14,NYYYMYGKCSI,2.28 ± 0.082
15,PAYLHYSIFWQNVFSNVLIM,1.1 ± 0.14
16,PCFEFSTSVRVFSDAKGLSV,0.234 ± 0.25
17,PCGVEMLWFKG,inactive
18,PCYCSFVSRSYYCKDYVRNS,inactive
19,PDLTKNSWYLYSYRLV,inactive
20,PEASLLVPMVSSYPLHFA,inactive
21,PEAVAAKRPSLQYPFASMTS,inactive
22,PEAVTCCNQKMTPVFIIGHP,inactive
23,PEFYA,inactive
24,PELLEHYMSHF,inactive
25,PESFKGTQCVKFFYNCLLFK,1.2 ± 0.086
26,PESGAPNPSGYCLAHH,inactive
27,PEVCEPLLGFLCFCPVNSVP,inactive

row,Substance,amyloid nucleation score
1,PFCLPRGASCRAGCGEHIKG,inactive
2,PFFRASRLWLSLVRMRTLSV,inactive
3,PFGSSTRFIHVFYGAWGHSK,inactive
4,PFGVFHSSATTKRHFYMVGV,inactive
5,PFHSVYVDDDAWNGVCLPAV,inactive
6,PFMCGRAIRLSFREFTRLKN,inactive
7,PFSSFWVTRTLIALWYSLRT,inactive
8,PFWKLKQKWVR,-1.1 ± 1.9
9,PGEHCWRRFLT,inactive
10,PGFINFRGVTGKSLTYSILI,inactive
11,PGLLLNRMLDARFM,inactive
12,PGWLPQGMDNNSLTAVCVTI,inactive
13,PIIFNFLRIM,1.7 ± 0.058
14,PILELGGRSFTTWRC,inactive
15,PILMISCAAGKELQLKVLWN,inactive
16,PITMLE,inactive
17,PIVRRKSPPRHYENELRGYS,inactive
18,PKFAHSEHVVNSNLFYCVEA,inactive
19,PKFFEAPQLQLFDAYSSMDF,inactive
20,PLCFLFNQFSYGA,inactive
21,PLDVNGYMNVTSGRRMCARR,inactive
22,PLESSWSK,inactive
23,PLGLAILFSSPSTFLYFNFD,inactive
24,PLIYSTLNCKRM,inactive
25,PLLLHVST,inactive
26,PLPAYCGYVLIGVHGYPFDI,inactive
27,PLPDRGSFFTVSNLNEWSAV,inactive

row,Substance,amyloid nucleation score
1,PLPLCKVM,-0.039 ± 0.66
2,PLSSSLGWVCL,inactive
3,PLTPD,inactive
4,PMGNRAWFPFLYEDQKPRIS,inactive
5,PMMVWFSNFLYVASMGPDSF,inactive
6,PMSVRRTVFCPSTSM,inactive
7,PMVKPSNLCYSSHCSMGTRG,inactive
8,PMYPGIVGSRAIMQRLVGCC,inactive
9,PNICGLGYYRLWSMLGITCW,inactive
10,PNISGGDAIEGLFFFRVGRE,1.04 ± 0.14
11,PNRWLSRLALRIFLGHCEPV,inactive
12,PNSLRRCVSRLVPRGLPRKR,inactive
13,PPSISSPFALRVFTFVLRY,inactive
14,PQMQAISSHVCLWG,inactive
15,PRCVC,inactive
16,PRDYMINNLLVFQSRG,inactive
17,PRLKFASYVMEMPLKFGEGI,inactive
18,PRLLRVSAIKSGRCPKGKKS,inactive
19,PRLTFSVVVRFCIHTLCLLK,inactive
20,PRNFVANPVELNKGKDFIPS,inactive
21,PRRSERYFCFF,0.443 ± 0.23
22,PRRTNRVNKSISSVLSLRIG,0.517 ± 0.57
23,PRTCMATSGPSGGHKSLFGF,inactive
24,PSGVTSCLKEWDSRDHGHRH,inactive
25,PSLRLQTTDILHKNSNY,inactive
26,PSSLKCKLAI,inactive
